Reference: the supplement of paper PMC9170038

Tested on: MS2 coat protein
Experiment: apparent KD of MS2 coat protein; higher = weaker reporter binding
Settings: Eterna round: R107
How it was run: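 For every design, apparent KD is the median of normalised binding-curve fits from its clusters. The RNA switches were transcribed on-chip from Illumina sequencing clusters and titrated with SNAP-549-labelled MS2 coat protein (twofold steps, 0.7 or 1.5 nM to 3 µM; 0.8–1.5 h to 10–20 min per step). Titrations used 100 mM Tris-HCl pH 7.5, 80 mM KCl, 4 mM MgCl2, without or with constant ligand.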

[1] = input ligand: theophylline 20 uM
[2] = input ligand: tryptophan 2.4 mM
[3] = input ligand: theophylline 2 mM

| Sequence | apparent KD of MS2 coat protein (input ligand: arginine 13.2 mM) | apparent KD of MS2 coat protein [1] | apparent KD of MS2 coat protein [2] | apparent KD of MS2 coat protein (input ligand: none) | apparent KD of MS2 coat protein [3] |
| --- | --- | --- | --- | --- | --- |
| ACCUCACUCUCUGAUACCAGCUAAUAACAUGAGGAUCACCCAUGUCAGACUUGUAUUGAUAGCCCUUGGCAGCAGAGGUAACUGC [Theo B Ex t2] | 9.42 nM | 11.9 nM | 10.6 nM |  |  |
| AGAGUCAGACAAAAGUCUGGCUCAGCCGAAGGAGCGUCCGAAAGGACAGGUAGGUCGCGGUUCCAUGAGGAUCACCCAUGGUCCU [ArgAS 28 #OpenEnded #AlternativeMS2] | 47.1 nM | 85.1 nM | 71.1 nM | 85 nM | 119 nM |
| AGGAAAACAUGAGCAAAGCUCAUGUGCGAAGGAGCGGCGGAAACGCCAGGUAGGUCGCGCACAUGAGCAUCAGCCAUGUGUAUCA [Omei Arginine B SS A v4] | 39.5 nM | 78.8 nM | 31.6 nM | 42.3 nM | 409 nM |
| CACAUGAGGAUCACCCAUGUCUGAACUGAAGGAGCGCUAAACAAGGCAGGUAGGUCGCGGAAUCCCGGGUGCAUAUGCACCCGGG [9.aA] | 50.4 nM | 23.2 nM | 21.4 nM | 23.9 nM | 23.4 nM |
| GCGCGGCGAGUGCGGCGUGUUCCGCUCCGUCGAGGACCGGUACGGCCGCCACUCGACAUGAGGAUCACCCAUGUCGCCGCGCGUC [Exclusion - Tryptophan A Attempt #1] | 12.6 nM | 48.6 nM |  |  | 19.2 nM |
| GGAUAUGGUGAAAGAGAGAAGAGAGAUGAUACCAGUAAGAGAAGAUGCCCUUGGCAGCAUAGAGACAUGAGGAUCACCCAUGUAA [solution] | 12 nM | 25.2 nM | 15.6 nM | 22.9 nM | 24.3 nM |
| ACCGAGGCAAUGGAUACCAGUGCGCCACAAUCGUGCUUCAACAUGAGGAUCACCCAUGUGCACCCUUGGCAGCCAACGGGCUCAU [theeternabot_exclusion_MS2_Theo_B_19] | 15 nM | 25.3 nM | 19.9 nM |  |  |
| UCAUGAGGAUCACCCAUGUGGCGUCUUGAUACCAGACGAGAAGUAGUCCCUUGGCAGCAAAUACAUGAGGAUCACCCAUGUAGGA [cccmullin2] | 24.5 nM | 38.2 nM | 43 nM |  |  |
| CGGUCGGUCGGUCGGUGAUUAUGGGAUGAAGGAGCGUGGGAAGCUACAGGUAGGUCGCAUCCGAAACAUGAGGAUCACCCAUGUU [#21 Same State - Arginine A] | 24.6 nM | 26.8 nM | 18.5 nM | 21 nM | 21.3 nM |
| AUGUCGUUGAAUACAGCGGCAUGGAGUGAUACCAGAAUGAUCAAAUUCCCUUGGCAGCAUCACAUGAGGAUCACCCAUGUUCGAU [SSTheo A #16] | 22.2 nM | 33.2 nM | 40.9 nM |  |  |
| GACCUUAUCUGAAGGAGCGAGGUAAAUAGGGUUGAGCAUACAUGAGGAUCACCCAUGUGGCCUCAGGUAGGUCGCAGAUAAGACA [Exclusion Arginine B GF29] | 149 nM | 308 nM | 137 nM | 352 nM | 63.4 nM |
| UGUAUGUGAUCUGAUACCAGUCCAACUGGUAAAAUAUGAGGAUCACCCAUAUAAAAUUGGGACCCUUGGCAGCAGAUCGCAUACU | 108 nM | 632 nM | 492 nM | 265 nM | 129 nM |
| CCUAUGACAUGAGGAUCACCCAUGUUGGAUACCAGCGCAUGAGGACGCCCUUGGCAGCCAAUGAACAUGAGGAUACAUGAGGAUC [Same State Theophylline A 4] | 30.2 nM | 69.7 nM | 41.6 nM |  |  |
| CGGUCGGUCGGCCGGUGAUUAUGGGAUGAAGGAGCGUGGGAAGCUACAGGUAGGUCGCAUCCGAAACACGAGGAUCACCCGUGUU [SSArg A #25Alt-Ms2 Mod] | 26.5 nM | 38.3 nM | 28.4 nM | 24.3 nM | 37.4 nM |
| CUCAUCCACGCGGCCGCCACUAUAUUGUGGUGUGAAUGUGACGUAUUACAAGAGGAUCACCCUUGUAGGACCGGGCGUGGAUGAG [Tryp B Ex Mod1] | 28.5 nM | 28.4 nM | 147 nM | 20.3 nM | 34.2 nM |
| GGCAGUCAUAGGAGGGCAAAUAUACUCGAAGGAGCGUCAUAGUAGGCAGGUAGGUCGCGAGACAUGAGGAUCACCCAUGUAGAGA [wwzmullin] | 20.2 nM | 106 nM | 90.5 nM | 66.9 nM | 125 nM |
| GGGCUGUGACCAGGAAAUGGUCACAGCCCACGAGGACCGGUACGGCCGCCACUCGAAAGUACAUGAGGAUCACCCAUGUCGGUGG [#1 Same State - Tryptophan A Attempt #8 (HarryS)] | 25.9 nM | 30.6 nM | 50.9 nM | 34.1 nM | 37.9 nM |
| AGAGUCUAGUCGGCCGCCACUCAUGUCCUAAGGACAUGAGGAUCACCCAUGUACCAAAGGUACAUGAGGACCGGGACUGGACUCA [Omei Tryp B SS C v1] | 23.3 nM | 345 nM | 9.28 nM | 75.9 nM | 189 nM |

| Sequence | apparent KD of MS2 coat protein (input ligand: arginine 13.2 mM) | apparent KD of MS2 coat protein [1] | apparent KD of MS2 coat protein [2] | apparent KD of MS2 coat protein (input ligand: none) | apparent KD of MS2 coat protein [3] |
| --- | --- | --- | --- | --- | --- |
| AUACAUGAGGAUCACCCAUGUCACACAGAAGGAGCGGCUGUAGAGCCAGGUAGGUCGCUGUACUGAAAAUACUUCAUACUCAUGU [#30 Exclusion - Arginine A] | 21.7 nM | 43 nM | 26.1 nM | 59.6 nM | 32.3 nM |
| AGUGCUACGUGUAAUCAAAGAGAACCAGAUACCAGAUUAGCAUACAUCCCUUGGCAGCUGCAUACAUGAGGAUCACCCAUGUCAG [theeternabot_exclusion_MS2_Theo_A_31] | 26.5 nM | 38.4 nM | 31.8 nM |  |  |
| GGACUAACUGGAAGGAGCGACGCGCAGAAACUGCAAUUUCCUCCACACGAGGAUCACCCGUGUCAGGUAGGUCGCCAGUUAGUCG [ArgBX 29] | 19.1 nM | 24.7 nM | 18.6 nM | 16.7 nM | 21.1 nM |
| GACUAUAUGAUAUGUCAGAAAUCCUCGAAACGAGGACCGGUACGGCCGCCACUCGAGUGAUAAACAUGAGGAUCACCCAUGUAAA [Tryp A Ex t2] | 21 nM | 28 nM |  |  | 27.7 nM |
| AUCGUACCUGAUGAUACCAGCAUGUGAUCAUAACAUGAGGAUCACCCAUGUAAUCAGUGAUGCCCUUGGCAGCAUAGUCGAUACA [Same State - Theophylline B (Freestyle 6)] | 80.8 nM | 174 nM | 149 nM |  |  |
| GCUAGGUCUACGGCCGCCACUAGACGUGGGUAAGACAUGAGGAUCACCCAUGUACUACGGGCGAAUAGGACCGGGUAGACCUAGC [SSTB NP+V+V2 #14 Same Structure] | 173 nM | 499 nM | 39.1 nM | 321 nM | 668 nM |
| UCGUGUAUAACGGAUACCAGUGAGAAGGAUACAUGAGGAUCACCCAUGUGAGUUGAUCCACACCCUUGGCAGCUGUAUAUAUCUA [alamullin] | 103 nM | 468 nM | 290 nM |  |  |
| AGAGUCAGACAAAAGUCUGGCUCAGCCGAAGGAGCGUCCGAAAGGACAGGUAGGUCGCGGUUGCAUGAGGAUCACCCAUGUUCCU [ArgAS 30 #OpenEnded #AlternativeMS2] | 76.7 nM | 399 nM | 324 nM | 286 nM | 528 nM |
| CUGGCAGGAUUCUCAGCUGUCAGGGCUGAUACCAGCCACGAAAGUGGCCCUUGGCAGCAGCAAACAUGAGGAUCACCCAUGUAAU [(T)''-(M)'-(T)'-(Theo)-(Ms2)_Design1] | 279 nM | 364 nM | 208 nM | 470 nM | 46.3 nM |
| UAAUAAUCCAGGGUGUAGGUAAUAACAGAUACCAGCCAGAUAACUGGCCCUUGGCAGCUGAAAACCUGAGGAUCACCCAGGUAAA [TheoAS 23 #OpenEnded #MS2Late #AlternativeMS2] | 36.4 nM | 122 nM | 62.6 nM | 56.2 nM | 67.7 nM |
| CAAACAUGAGGAUCACCCAUGUAAACCGAAGGAGCGACGCAUAAGUCAGGUAGGUCGCGGAAGAUAAAAUAGAACACUGGGCACA [Same State Arginine A GF1] | 18.2 nM | 19.2 nM | 19.1 nM | 17.7 nM | 17.3 nM |
| UGUAUGGACUGAAGGAGCGGAUGAUAACCUGAGGAUCACCCGGGUAAUAAGGCGAAAGCCAUCCAGGUAGGUCGCAGUCCAUACU | 53.2 nM | 111 nM | 82.9 nM | 101 nM | 126 nM |
| GGGCCCGGGCGCGAGCCCGGGCCCAUUGAUACCAGUGAGAGAGAGCGCCCUUGGCAGCGAAUCCUAACAUGAGGAUCACCCAUGU [5.N] | 49.5 nM | 84.6 nM | 41.6 nM | 51.6 nM | 84.3 nM |
| ACAUGAGGAUCACCCAUGUUCCUCAUUGAUACCAGUGAAUUUAGACGCCCUUGGCAGCGAGUUUUUUUAUAAGAAGUUUUUUUUU [6.G] | 280 nM | 659 nM | 900 nM |  |  |
| AGUAAUCUAACAGAUACCAGACGGUAUAUAACAUGAGGAUCACCCAUGUCUUGGGUGUACGUCCCUUGGCAGCUGAAAAUGAUAA [JR_SSTheophyB_Sub001] | 157 nM | 551 nM | 756 nM |  |  |
| CAUGGCUGUGCGGCCGCCACUGGCUCAUCCUGCAUUACAUGAGGAUCACCCAUGUUGCGGCCUCCCAGGACCGGGCAUAGCCUGA [Abediat] | 39.5 nM | 511 nM |  |  | 571 nM |
| CCCGUAAAGGCGGCCGCCACUGUAUGACAUGAGGAUCACCCAUGUAGGGAAAAUGCGAUGGUCGUCAGGACCGGGCCUCUGGCAU [theeternabot_exclusion_MS2_Trp_B_5] | 17.4 nM | 29.3 nM |  |  | 28.2 nM |
| UAUAUAUACUCGGCCGCCACUGAGAGAGUCAUGUAAACAUGAGGAUCACCCAUGUAAUAUAUAUACAGGACCGGGAGUAUAUGAA [4.B] | 11.8 nM | 17.7 nM |  |  | 15.5 nM |
